Assay results taken from US20120316071A1 (published 2012).

Assays:
[1] = molecular target: T1, rHuman IGF-1 sR, CF (R&D Systems Cat#391-GR) (human, UniProt P08069 31-932); test: MSD multispot ECL, antigen spotted on plate; Fab 0.51 uM; blank spot 1096
T1 construct: Bought recombinant soluble receptor; also called insulin-like growth factor-1 soluble receptor

[2] = molecular target: T2, rHuman Erythropoietin R/Fc Chimera, CF (R&D Systems Cat#963-ER) (human, UniProt P19235 25-250); test: as above
T2 construct: Bought recombinant protein; also called EPO R/Fc; Epo R; Fc part of the bought chimera not given
T2 sequence (looked up): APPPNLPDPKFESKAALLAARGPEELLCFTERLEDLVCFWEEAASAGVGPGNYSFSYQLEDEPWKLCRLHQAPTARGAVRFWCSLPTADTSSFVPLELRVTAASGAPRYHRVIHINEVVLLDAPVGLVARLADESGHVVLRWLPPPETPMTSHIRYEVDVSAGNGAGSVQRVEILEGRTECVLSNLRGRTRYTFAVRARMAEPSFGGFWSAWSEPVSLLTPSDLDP

[3] = molecular target: T3, rHuman Notch-1/Fc Chimera, CF (R&D Systems Cat#3647-TK) (human, UniProt P46531 19-526); test: as above
T3 construct: Bought recombinant protein; Fc part of the bought chimera not given

[4] = molecular target: T4, rHuman CD44/Fc Chimera, CF (R&D Systems Cat#3660-CD) (human, UniProt P16070 21-220); test: as above
T4 construct: Bought recombinant protein; Fc part of the bought chimera not given

[5] = molecular target: T5, rHuman EGF R/Fc Chimera, CF (R&D Systems Cat#344-ER) (human, UniProt P00533 25-645); test: as above
T5 construct: Bought recombinant protein; also called epidermal growth factor receptor; Fc part of the bought chimera not given

[6] = molecular target: T6, rHuman P-Cadherin/Fc Chimera, CF (R&D Systems Cat#861-PC) (human, UniProt P22223 108-654); test: as above
T6 construct: Bought recombinant protein; Fc part of the bought chimera not given

[7] = molecular target: T7, Recombinant Human DLL4 (R&D Systems Cat#1506-D4/CF) (human, UniProt Q9NR61 27-524); test: as above
T7 construct: Bought recombinant protein; also called delta-like protein 4; rHuman DLL4

[8] = molecular target: T8, rHuman ErbB2/Fc Chimera, CF (R&D Systems Cat#1129-ER) (human, UniProt P04626 23-652); test: as above
T8 construct: Bought recombinant protein; also called human epidermal growth factor 2 receptor; Fc part of the bought chimera not given

[9] = molecular target: T9, rHuman HGF R/c-MET/Fc Chimera, CF (R&D Systems Cat#358-MT/CF) (human, UniProt P08581 25-932); test: as above
T9 construct: Bought recombinant protein; also called HGF R/Fc; hepatocyte growth factor receptor; Fc part of the bought chimera not given
T9 sequence (P08581 25-932, change not shown): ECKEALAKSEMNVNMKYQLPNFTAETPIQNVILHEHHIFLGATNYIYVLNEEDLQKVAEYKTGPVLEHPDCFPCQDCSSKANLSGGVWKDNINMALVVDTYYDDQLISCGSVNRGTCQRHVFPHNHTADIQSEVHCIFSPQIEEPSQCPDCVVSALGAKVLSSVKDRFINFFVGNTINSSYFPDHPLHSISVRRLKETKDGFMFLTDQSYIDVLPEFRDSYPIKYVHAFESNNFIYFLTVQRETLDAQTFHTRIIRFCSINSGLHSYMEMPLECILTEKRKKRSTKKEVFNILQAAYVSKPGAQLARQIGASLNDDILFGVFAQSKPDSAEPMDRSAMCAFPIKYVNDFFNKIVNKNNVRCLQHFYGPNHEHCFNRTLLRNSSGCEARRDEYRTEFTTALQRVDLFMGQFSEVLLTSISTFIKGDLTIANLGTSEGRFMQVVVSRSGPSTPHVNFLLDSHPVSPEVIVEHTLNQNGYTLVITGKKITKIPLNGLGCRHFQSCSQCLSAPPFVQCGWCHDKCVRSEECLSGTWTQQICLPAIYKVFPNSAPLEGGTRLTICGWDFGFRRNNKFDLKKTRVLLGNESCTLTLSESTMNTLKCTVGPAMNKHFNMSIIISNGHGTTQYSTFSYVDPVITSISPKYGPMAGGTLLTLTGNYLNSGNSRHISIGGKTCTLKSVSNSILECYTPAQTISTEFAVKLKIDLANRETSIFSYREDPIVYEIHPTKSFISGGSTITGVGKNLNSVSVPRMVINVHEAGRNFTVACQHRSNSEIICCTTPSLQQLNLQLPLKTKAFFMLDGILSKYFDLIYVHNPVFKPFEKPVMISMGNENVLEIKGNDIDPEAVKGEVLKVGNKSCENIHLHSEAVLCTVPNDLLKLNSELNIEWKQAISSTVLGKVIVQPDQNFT

[10] = molecular target: T10, rHuman IGF-1 sR (IGF-1 sR), CF (R&D Systems Cat#391-GR) (human, UniProt P08069 31-932); test: Multispot ECL (MSD) titration; antigen spotted on plate; Fab 98.1 nM; blank spot 210
T10 construct: Bought soluble receptor; also called insulin-like growth factor-1 soluble receptor

[11] = molecular target: T11, Recombinant Human DLL4 (R&D Systems Cat#1506-D4/CF) (human, UniProt Q9NR61 27-524); test: as above
T11 construct: Bought recombinant protein; also called delta-like protein 4; rHuman DLL4

[12] = molecular target: T12, rHuman Erythropoietin R/Fc Chimera, CF (R&D Systems Cat#963-ER) (human, UniProt P19235 25-250); test: as above
T12 construct: Bought Fc chimera; also called EPO R/Fc; EPO R; Fc part of the bought chimera not given
T12 sequence (looked up): T2 sequence (looked up)

[13] = molecular target: T13, rHuman ErbB2/Fc Chimera, CF (R&D Systems Cat#1129-ER) (human, UniProt P04626 23-652); test: Multispot ECL (MSD) titration; antigen spotted on plate; Fab 14.5 nM; blank spot 117
T13 construct: Bought Fc chimera; also called human epidermal growth factor 2 receptor; Fc part of the bought chimera not given

[14] = molecular target: T14, rHuman Erythropoietin R/Fc Chimera, CF (R&D Systems Cat#963-ER) (human, UniProt P19235 25-250); test: MSD Multispot ECL, antigen spotted on plate, Fab at 240 nM; blank spot 316
T14 construct: Bought Fc chimera; also called EPO R/Fc; Epo R; Fc part of the bought chimera not given
T14 sequence (looked up): T2 sequence (looked up)

[15] = molecular target: T15, rHuman Notch-1/Fc Chimera, CF (R&D Systems Cat#3647-TK) (human, UniProt P46531 19-526); test: as above
T15 construct: Bought Fc chimera; Fc part of the bought chimera not given

[16] = molecular target: T16, rHuman P-Cadherin/Fc Chimera, CF (R&D Systems Cat#861-PC) (human, UniProt P22223 108-654); test: as above
T16 construct: Bought Fc chimera; Fc part of the bought chimera not given

[17] = molecular target: T17, rHuman CD44/Fc Chimera, CF (R&D Systems Cat#3660-CD) (human, UniProt P16070 21-220); test: as above
T17 construct: Bought Fc chimera; Fc part of the bought chimera not given

[18] = molecular target: T18, Recombinant Human DLL4 (R&D Systems Cat#1506-D4/CF) (human, UniProt Q9NR61 27-524); test: as above
T18 construct: Bought recombinant protein; also called rHuman DLL4; delta-like protein 4

B1: Fab VH4-34_IGHD7-27*01_IGHJ4*01 & L5_IGKJ1*01 (Fab, V domains shown)
VH: QVQLQQWGAGLLKPSETLSLTCAVYGGSFSGYYWSWIRQPPGKGLEWIGEINHSGSTNYNPSLKSRVTISVDTSKNQFSLKLSSVTAADTAVYYCARANWGDYFDYWGQGTLVTVSS
VL: DIQMTQSPSSVSASVGDRVTITCRASQGISSWLAWYQQKPGKAPKLLIYAASSLQSGVPSRFSGSGSGTDFTLTISSLQPEDFATYYCQQANSFPPWTFGQGTKVEIKR
notes: Germline library Fab expressed in E. coli; VH was cloned into Plasmid A, which adds CH1 with His6 and Flag tags
[1]
  ECL signal: 2240
[2]
  ECL signal: 2620
[3]
  ECL signal: 2770
[4]
  ECL signal: 2010
[5]
  ECL signal: 2360
[6]
  ECL signal: 2390
[7]
  ECL signal: 5180
[8]
  ECL signal: 1530
[9]
  ECL signal: 1990

B2: Fab VH1-46_IGHD3-10*01_IGHJ4*01 & O1_IGKJ1*01 (Fab, V domains shown)
VH: QVQLVQSGAEVKKPGASVKVSCKASGYTFTSYYMHWVRQAPGQGLEWMGIINPSGGSTSYAQKFQGRVTMTRDTSTSTVYMELSSLRSEDTAVYYCAREYYYGSGSYYNDYFDYWGQGTLVTVSS
VL: DIVMTQTPLSLPVTPGEPASISCRSSQSLLDSDDGNTYLDWYLQKPGQSPQLLIYTLSYRASGVPDRFSGSGSGTDFTLKISRVEAEDVGVYYCMQRIEFPSWTFGQGTKVEIKR
notes: Germline library Fab expressed in E. coli; VH was cloned into Plasmid A (CH1 constant region, His6 and Flag tags); The kappa VL was cloned into Plasmid C (kappa CL)
[10]
  ECL signal: 309
[11]
  ECL signal: 402
[12]
  ECL signal: 5630

B3: Fab VH1-46_IGHD6-13*01_IGHJ4*01 & O1_IGKJ1*01 (Fab, V domains shown)
VH: QVQLVQSGAEVKKPGASVKVSCKASGYTFTSYYMHWVRQAPGQGLEWMGIINPSGGSTSYAQKFQGRVTMTRDTSTSTVYMELSSLRSEDTAVYYCAREGYSSSWYDYFDYWGQGTLVTVSS
VL: B2 VL
notes: as for B2
[13]
  ECL signal: 274

B4: Fab VH6-1_IGHD3-3*01_IGHJ4*01 & V4-3_IGLJ4*01 (Fab, V domains shown)
VH: QVQLQQSGPGLVKPSQTLSLTCAISGDSVSSNSAAWNWIRQSPSRGLEWLGRTYYRSKWYNDYAVSVKSRITINPDTSKNQFSLQLNSVTPEDTAVYYCAREYYDFWSGYYTDYFDYWGQGTLVTVSS
VL: QPVLTQPTSLSASPGASARLTCTLRSGINLGSYRIFWYQQKPESPPRYLLSYYSDSSKHQGSGVPSRFSGSKDASSNAGILVISGLQSEDEADYYCMIWHSSASFVFGGGTQLIIL
notes: Tested as a purified germline Fab made in E. coli; The VH was cloned into plasmid A (CH1 constant region, His6 and Flag tags) and the lambda VL into plasmid E (lambda CL)
[14]
  ECL signal: 478
[15]
  ECL signal: 368
[16]
  ECL signal: 383
[17]
  ECL signal: 470
[18]
  ECL signal: 1270
